Reference: patent publication US20050014220A1

Target: bovine thrombin (bovine) (UniProt P00735)
Assay: cell-based or functional assay

| Substance | rate of change in absorbance of the chromogenic substrate S2238 at 405 nm (thrombin-dependent activation of protein C on COS cells) [units/min] |
| --- | --- |
| mutated murine thrombomodulin lacking the N-terminal lectin-like domain, expressed on COS cells (from UniProt P15306 17-577) (receptor) | 0.23 |
| wild-type murine thrombomodulin expressed on COS cells (from UniProt P15306 17-577) (receptor) | 0.21 |
